Data from the supplement of paper PMC10567573.

B1: PDLIM7 (parent)
chain: AAGGVPGGGSNNGKTPVCHQCHKV
B2: ANKRD40 (parent)
chain: SLRENDFIEIELDRQELTYQELLR

Variants of: B1
Assay: protein stability index of a GFP-peptide fusion (GPS, HEK-293T) (PSI 1-6); higher = more stable
Conditions: c terminus: a fixed tail appended
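Further: lentivirally expressed fusions sorted by FACS into six bins by GFP to DsRed ratio, PSI derived from sequencing read proportions per bin multiplied by bin number.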

Variant | protein stability index
ALGGVPGGGSNNGKTPVCHQCHKV | 3.53
AIGGVPGGGSNNGKTPVCHQCHKV | 3.49
AFGGVPGGGSNNGKTPVCHQCHKV | 3.86
AEGGVPGGGSNNGKTPVCHQCHKV | 4.76
ANGGVPGGGSNNGKTPVCHQCHKV | 4.08
AGGGVPGGGSNNGKTPVCHQCHKV | 3.43
ADGGVPGGGSNNGKTPVCHQCHKV | 3.81
ACGGVPGGGSNNGKTPVCHQCHKV | 2.73
AQGGVPGGGSNNGKTPVCHQCHKV | 4.19
AMGGVPGGGSNNGKTPVCHQCHKV | 3.78
APGGVPGGGSNNGKTPVCHQCHKV | 2.15
AKGGVPGGGSNNGKTPVCHQCHKV | 4.11
AHGGVPGGGSNNGKTPVCHQCHKV | 3.63
EAGGVPGGGSNNGKTPVCHQCHKV | 4.24
GAGGVPGGGSNNGKTPVCHQCHKV | 3.52
NAGGVPGGGSNNGKTPVCHQCHKV | 3.03

Variant | protein stability index
CAGGVPGGGSNNGKTPVCHQCHKV | 3.35
WAGGVPGGGSNNGKTPVCHQCHKV | 3.22
YAGGVPGGGSNNGKTPVCHQCHKV | 1.95
KAGGVPGGGSNNGKTPVCHQCHKV | 3.36
MAGGVPGGGSNNGKTPVCHQCHKV | 3.5
DAGGVPGGGSNNGKTPVCHQCHKV | 4.34
VAGGVPGGGSNNGKTPVCHQCHKV | 3.93
RAGGVPGGGSNNGKTPVCHQCHKV | 2.36
TAGGVPGGGSNNGKTPVCHQCHKV | 2.73
FAGGVPGGGSNNGKTPVCHQCHKV | 2.45
SAGGVPGGGSNNGKTPVCHQCHKV | 2.44
HAGGVPGGGSNNGKTPVCHQCHKV | 4.13
PAGGVPGGGSNNGKTPVCHQCHKV | 3.33
LAGGVPGGGSNNGKTPVCHQCHKV | 3.76
IAGGVPGGGSNNGKTPVCHQCHKV | 3.52

Variants of: B2
Assay: as above
Conditions: c terminus: a fixed tail appended

Variant | protein stability index
SLRENDFIEIELDRQVLTYQELLR | 2.48
SLRENDFIEIELDRQYLTYQELLR | 2.15
SLRENDFIEIELDRQWLTYQELLR | 2.55
SLRENDFIEIELDRQTLTYQELLR | 2.76
SLRENDFIEIELDRQSLTYQELLR | 3.48
SLRENDFIEIELDRQELTYQMLLR | 1.92
SLRENDFIEIELDRQELTYQKLLR | 2.67
SLRENDFIEIELDRQELTYQRLLR | 2.62
SLRENDFIEIELDRQELTYQHLLR | 2.76
SLRENDFIEIELDRQELTYQDLLR | 2.85
SLRENDFIEIELDRQELTYQILLR | 1.9
SLRENDFIEIELDRQELTYQWLLR | 1.85
SLRENDFIEIELDRQELTYQQLLR | 3.34
SLRENDFIEIELDRQELTYQPLLR | 2.36
SLRENDFIEIELDRQELTYQFLLR | 1.69
SLRENDFIEIELDRQELTYQGLLR | 2.67
SLRENDFIEIELDRQELTYQSLLR | 2.71
SLRENDFIEIELDRQELTYQTLLR | 2.09
SLRENDFIEIELDRQELTYQNLLR | 2.83
SLRENDFIEIELDRQELTYQVLLR | 1.99
SLRENDFIEIELDRQELTYQLLLR | 1.69
SLRENDFIEIELDRQELTYQALLR | 2.44
SLRENDFIEIELDRQELTYQCLLR | 1.94

Variant | protein stability index
SLRENDFIEIELDRQELTYQYLLR | 1.77
SLRENDFIEIELDRQELTYQELLC | 2.72
SLRENDFIEIELDRQELTYQELLM | 2.52
SLRENDFIEIELDRQELTYQELLS | 2.92
SLRENDFIEIELDRQELTYQELLP | 3.06
SLRENDFIEIELDRQELTYQELLW | 2.26
SLRENDFIEIELDRQELTYQELLL | 3.09
SLRENDFIEIELDRQELTYQELLY | 2.43
SLRENDFIEIELDRQELTYQELLF | 2.64
SLRENDFIEIELDRQELTYQELLA | 3.23
SLRENDFIEIELDRQELTYQELLE | 3.88
SLRENDFIEIELDRQELTYQELLH | 2.77
SLRENDFIEIELDRQELTYQELLI | 2.35
SLRENDFIEIELDRQELTYQELLV | 2.71
SLRENDFIEIELDRQELTYQELLG | 3.27
SLRENDFIEIELDRQELTYQELLK | 3.12
SLRENDFIEIELDRQELTYQELLD | 3.17
SLRENDFIEIELDRQELTYQELLN | 3.49
SLRENDFIEIELDRQELTYQELLQ | 3.04
SLRENDFIEIELDRQELTYQELLT | 3.06
SLRENDFIEIELDRQEATYQELLR | 3.11
SLRENDFIEIELDRQEITYQELLR | 3.19
SLRENDFIEIELDRQESTYQELLR | 3.41

Variant | protein stability index
SLRENDFIEIELDRQERTYQELLR | 3.25
SLRENDFIEIELDRQEDTYQELLR | 3.71
SLRENDFIEIELDRQECTYQELLR | 3.12
SLRENDFIEIELDRQEETYQELLR | 3.37
SLRENDFIEIELDRQEFTYQELLR | 2.61
SLRENDFIEIELDRQETTYQELLR | 3.35
SLRENDFIEIELDRQEMTYQELLR | 2.92
SLRENDFIEIELDRQEYTYQELLR | 3.28
SLRENDFIEIELDRQEKTYQELLR | 3.61
SLRENDFIEIELDRQENTYQELLR | 3.54
SLRENDFIEIELDRQEGTYQELLR | 3.3
SLRENDFIEIELDRQEQTYQELLR | 3.57
SLRENDFIEIELDRQEVTYQELLR | 2.9
SLRENDFIEIELDRQEPTYQELLR | 2.74
SLRENDFIEIELDRQEHTYQELLR | 3.59
SLRENDFIEIELDRQEWTYQELLR | 3.1
SLRENDFIEIELDRQELCYQELLR | 2.46
SLRENDFIEIELDRQELHYQELLR | 3.2
SLRENDFIEIELDRQELIYQELLR | 2.1
SLRENDFIEIELDRQELQYQELLR | 3.37
SLRENDFIEIELDRQELWYQELLR | 2.73
SLRENDFIEIELDRQELDYQELLR | 3.71
SLRENDFIEIELDRQELNYQELLR | 3.5

Variant | protein stability index
SLRENDFIEIELDRQELYYQELLR | 2.59
SLRENDFIEIELDRQELEYQELLR | 3.49
SLRENDFIEIELDRQELMYQELLR | 2.12
SLRENDFIEIELDRQELGYQELLR | 3.53
SLRENDFIEIELDRQELFYQELLR | 1.85
SLRENDFIEIELDRQELLYQELLR | 2.49
SLRENDFIEIELDRQELAYQELLR | 3.06
SLRENDFIEIELDRQELRYQELLR | 3.29
SLRENDFIEIELDRQELKYQELLR | 2.93
SLRENDFIEIELDRQELPYQELLR | 3.28
SLRENDFIEIELDRQELVYQELLR | 2.22
SLRENDFIEIELDRQELSYQELLR | 3.55
SLRENDFIEIELDRQELTYQELQR | 3.94
SLRENDFIEIELDRQELTYQELYR | 3.43
SLRENDFIEIELDRQELTYQELCR | 2.97
SLRENDFIEIELDRQELTYQELVR | 3.53
SLRENDFIEIELDRQELTYQELGR | 3.48
SLRENDFIEIELDRQELTYQELNR | 4.05
SLRENDFIEIELDRQELTYQELWR | 2.04
SLRENDFIEIELDRQELTYQELPR | 3.58
SLRENDFIEIELDRQELTYQELKR | 3.85
SLRENDFIEIELDRQELTYQELFR | 2.54
SLRENDFIEIELDRQELTYQELTR | 3.59

Variant | protein stability index
SLRENDFIEIELDRQELTYQELER | 3.99
SLRENDFIEIELDRQELTYQELIR | 2.76
SLRENDFIEIELDRQELTYQELAR | 3.73
SLRENDFIEIELDRQELTYQELMR | 3.16
SLRENDFIEIELDRQELTYQELSR | 4
SLRENDFIEIELDRQELTYQELDR | 4.25
SLRENDFIEIELDRQELTYQELRR | 3.75
SLRENDFIEIELDRQELTYQELHR | 3.6
SLRENDFIEIELDRQELTDQELLR | 4.59
SLRENDFIEIELDRQELTWQELLR | 2.61
SLRENDFIEIELDRQELTLQELLR | 3.12
SLRENDFIEIELDRQELTHQELLR | 3.71
SLRENDFIEIELDRQELTMQELLR | 3.22
SLRENDFIEIELDRQELTRQELLR | 4.13
SLRENDFIEIELDRQELTVQELLR | 3.38
SLRENDFIEIELDRQELTEQELLR | 4.6
SLRENDFIEIELDRQELTSQELLR | 3.79
SLRENDFIEIELDRQELTCQELLR | 2.93
SLRENDFIEIELDRQELTPQELLR | 4.43
SLRENDFIEIELDRQELTGQELLR | 3.86
SLRENDFIEIELDRQELTFQELLR | 2.31
SLRENDFIEIELDRQELTIQELLR | 2.73
SLRENDFIEIELDRQELTQQELLR | 4.47

Variant | protein stability index
SLRENDFIEIELDRQELTAQELLR | 4.12
SLRENDFIEIELDRQELTTQELLR | 3.5
SLRENDFIEIELDRQELTNQELLR | 4.22
SLRENDFIEIELDRQELTKQELLR | 3.99
SLRENDFIEIELDRQELTYQEILR | 2.53
SLRENDFIEIELDRQELTYQENLR | 3.92
SLRENDFIEIELDRQELTYQEPLR | 3.56
SLRENDFIEIELDRQELTYQEFLR | 3.14
SLRENDFIEIELDRQELTYQESLR | 3.8
SLRENDFIEIELDRQELTYQEHLR | 3.42
SLRENDFIEIELDRQELTYQEMLR | 3.34
SLRENDFIEIELDRQELTYQERLR | 3.74
SLRENDFIEIELDRQELTYQEYLR | 2.9
SLRENDFIEIELDRQELTYQEQLR | 4.02
SLRENDFIEIELDRQELTYQEWLR | 2.86
SLRENDFIEIELDRQELTYQEKLR | 3.97
SLRENDFIEIELDRQELTYQEALR | 3.8
SLRENDFIEIELDRQELTYQEDLR | 4.54
SLRENDFIEIELDRQELTYQECLR | 3.58
SLRENDFIEIELDRQELTYQETLR | 3.45
SLRENDFIEIELDRQELTYQEELR | 3.66
SLRENDFIEIELDRQELTYQEVLR | 2.77
SLRENDFIEIELDRQELTYQEGLR | 3.57

Variant | protein stability index
SLRENDFIEIELDRQELTYVELLR | 2.62
SLRENDFIEIELDRQELTYEELLR | 3.58
SLRENDFIEIELDRQELTYHELLR | 2.76
SLRENDFIEIELDRQELTYPELLR | 2.95
SLRENDFIEIELDRQELTYWELLR | 2.25
SLRENDFIEIELDRQELTYRELLR | 2.3
SLRENDFIEIELDRQELTYDELLR | 3.7
SLRENDFIEIELDRQELTYIELLR | 1.83
SLRENDFIEIELDRQELTYSELLR | 3.3
SLRENDFIEIELDRQELTYNELLR | 2.65
SLRENDFIEIELDRQELTYTELLR | 2.97
SLRENDFIEIELDRQELTYCELLR | 2.16
SLRENDFIEIELDRQELTYKELLR | 3.2
SLRENDFIEIELDRQELTYAELLR | 2.72
SLRENDFIEIELDRQELTYYELLR | 2.29
SLRENDFIEIELDRQELTYLELLR | 2.04
SLRENDFIEIELDRQELTYFELLR | 1.99
SLRENDFIEIELDRQELTYGELLR | 3.15
SLRENDFIEIELDRQELTYMELLR | 2.3
